Source: patent US20220267415A1 (University of Texas, published 2022)

Assays:
[1] = molecular target: B.1.526 Iota variant spike protein on recombinant USA-WA1/2020 virus (SARS-CoV-2); test: cell-based or functional assay
[2] = molecular target: T1, wild type RBD protein (generated as in Ku et al. 2021) (SARS-CoV-2, UniProt P0DTC2 319-541)
[3] = molecular target: T1, wild type RBD protein (generated as in …); test: binding KD on RBD protein, generally as Example 4
[4] = molecular target: T1, wild type RBD protein (generated as in …); test: BLI competition, RBD on sensor, antibody then ACE2; competitor ACE2

Row | Binder | Neutralization EC50 (PRNT) [1] [µg/mL] | EC50 (read off the curve) [2] [nM] | Kd [3] [pM] | EC50 [4] [nM] | Fold-Increase in potency of IgM over IgG [1] [fold]
1 | anti-SARS-CoV2-14 IgG (full lambda light chain) (antibody, V domains shown) VH: EVQLQQSGPGLVKPSQTLSLTCAISGDSVSSNSAAWNWIRQSPSRGLEWLGRTYYRSKWYNDYAVSVKSRITINPDTSKNQFSLQLNSVTPEDTAVYYCAREEQQLVHDYYYYGMDVWGQGTMVTVSS VL: QAVVTQPASVSGSPGQSITISCTGTSSDIGAYNYISWYQQHPGKAPKLIIYEVSNRPSGISYRFSGSKSGNTASLTISGLQAEDEANYYCSSYAGSISFGGGTKVTVL | 170 | – | – | – | –
2 | anti-SARS-CoV2-14 IgM (full lambda light chain) (antibody) heavy: EVQLQQSGPGLVKPSQTLSLTCAISGDSVSSNSAAWNWIRQSPSRGLEWLGRTYYRSKWYNDYAVSVKSRITINPDTSKNQFSLQLNSVTPEDTAVYYCAREEQQLVHDYYYYGMDVWGQGTMVTVSSGSASAPTLFPLVSCENSPSDTSSVAVGCLAQDFLPDSITFSWKYKNNSDISSTRGFPSVLRGGKYAATSQVLLPSKDVMQGTDEHVVCKVQHPNGNKEKNVPLPVIAELPPKVSVFVPPRDGFFGNPRKSKLICQATGFSPRQIQVSWLREGKQVGSGVTTDQVQAEAKESGPTTYKVTSTLTIKESDWLSQSMFTCRVDHRGLTFQQNASSMCVPDQDTAIRVFAIPPSFASIFLTKSTKLTCLVTDLTTYDSVTISWTRQNGEAVKTHTNISESHPNATFSAVGEASICEDDWNSGERFTCTVTHTDLPSPLKQTISRPKGVALHRPDVYLLPPAREQLNLRESATITCLVTGFSPADVFVQWMQRGQPLSPEKYVTSAPMPEPQAPGRYFAHSILTVSEEEWNTGETYTCVVAHEALPNRVTERTVDKSTGKPTLYNVSLVMSDTAGTCY light: QAVVTQPASVSGSPGQSITISCTGTSSDIGAYNYISWYQQHPGKAPKLIIYEVSNRPSGISYRFSGSKSGNTASLTISGLQAEDEANYYCSSYAGSISFGGGTKVTVLGQPKAAPSVTLFPPSSEELQANKATLVCLISDFYPGAVTVAWKADSSPVKAGVETTTPSKQSNNKYAASSYLSLTPEQWKSHRSYSCQVTHEGSTVEKTVAPTECS not shown | 0.032 | ~0.9 | < 1 | 0.86 | 5300
